Measurements from US20110123511A1 (ICAHN SCHOOL OF MEDICINE AT MOUNT SINAI, published 2011).
Positions count from the first letter of the chain named.

B1: vSET triple mutant KR(M)R-to-AA(M)A (aa 85-88) (enzyme)
chain: MFNDRVIVKKSPLGGYGVFARKSFEKGELVEECLCIVRHNDDWGTALEDYLFSRKNMSAMALGFGAIFNHSKDPNARHELTAGLAAMAIFTIKPIAIGEEITISYGDDYWLSRPRLTQN
notes: elutes as a dimer like the wild type; also called KR(M)R/AA(M)A
B2: recombinant wild-type vSET expressed in E. coli BL21 (enzyme)
chain: B1 chain with A85K, A86R, A88R
notes: also called hexa-histidine tagged vSET; not shown: tag in the

Molecular target: the molecule itself
Test: gel filtration chromatography (self-association, homodimer)

| Protein | binding result |
| --- | --- |
| B1 | binds |
| B2 | binds |
